Experimental findings from the nanobody polyreactivity screen of Harvey et al. (2022) are described below.

A short description of the series: yeast display, Sf9 membrane polyspecificity reagent, FACS + sequencing; frameworks hold sequencing errors. In a few lines: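 Nanobodies came from a synthetic yeast display library in Saccharomyces cerevisiae BJ5465, induced with galactose for 36–48 hours and stained for 1 hour at 4 °C with 10% biotinylated, detergent-solubilized Sf9 membrane reagent. Cells were enriched on streptavidin microbeads and then FACS-sorted, with low and high (top ~1%) gates set on anti-HA fluorescence for expression and streptavidin fluorescence for reagent binding. Each polyreactivity label reflects the gate a clone came from. Genes were amplified by colony PCR, sequenced by MiSeq 2 × 250 and filtered by CDR length.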
As for “QVQLVESGGGLDQAGGSLRLSCAASGFILGDYAMGWYRQAPGKERELVAAITSSGGSTYYADSVKGRFTISRDNAKNTVYFQMNSLKPEDTAVYYCNTVYVYGPEYDYWGQGTQVTVSS”, the “polyreactivity (PSR sort gate)” value is “high polyreactivity”.
With “QVQLVESGGGIVQAGGSLRLSCAASGSISAYYAMGWYRQAPGNERELVAAISWNGGRTYYADSVKGRFTISRDNAKNSVYLQMNSLKPEDTAVYYCAASPYYVVSTGGYDYDYWGQGTQVTVSS” the entry was “high polyreactivity”; with “QVQLVESGGGLVQAGGSLRLSCAASGSIFGRYAMGWYRPAPGKDRELVAAISDDSSTNYADSVKGRFTISRDNAKHNDYLQMHSLKPEVTAVYYCNADSWRYVAEGLWREYDYWGQGTQVTVSS”, “low polyreactivity”.
For “QVQLVESGGGLVQAGGSLRLSCAASGFIFWRYTMGWYRQAPGKERELVAVISWSGDNTYADSVKGRFTISRDNAKNTVYLQMNSLKPEDTAVYYCGVYRYDYWGQGTQVTVSS”, the “polyreactivity (PSR sort gate)” value is on record as “low polyreactivity”.
Take “QVQLVESGGGLVQAGGSLRLSCAASGLIFRPYTMGWYRQAPGKERELVAAISRSGGSTYYADSVKGRFTISRDNAKNTVYLQVNSLKPEDTAVYYCNAVPRRQGFNYWGQGTQVTVSS”: the “polyreactivity (PSR sort gate)” value is recorded as “high polyreactivity”.
With “QEQLHESGGGQVQAGGSLLLSCAASGNIIRYYYIGCYRQAPGKEPELVAAITYGTSTNYADSVKGRFTISRDNAKNTVYLQMNSLKPEDTAVYYCAVDVNYGDPLDNWGQGTQVTVSS” the entry was “high polyreactivity”; with “QVQLVESGGGLVQAGGSLRLSCAASGRIYTWNAMGWYRQAPGKERDLVASISRSGTSTYYADSVKGRNTISRDNALTTVYLQMNSLKPEDTAVYYCAAKTSRGDRTQVEYWGQGTQVTVSS”, “high polyreactivity”; with “QVQLVESGGGLVQAGGSLRLSCAASGSIFDDYTMVWYRQAPGKEREFVATITSSGSTYYADSVKGRFTISRDNAKNTVYLQMNSLKPEDTAVYYCNADDTYYPLGGITGYDYWGQGTQVTVSS”, “low polyreactivity”.
With “QVQLVESGGGLVQAGGSLRLSCAASGSIFVANAMGWYRQAPGKERELVAAISVRGGRTYYADSVKGRFTISRDNAKNTVYLQMNSLKPEDTAVYYCARVLRSDVADYDYWGQGTQVTVSS” the entry was “high polyreactivity”; with “QVQLVESGGGLVQAGGSLRLSCAASGSIFSVNTKGWYRQAPGKERELVATIRTGDSTNYADSVKGLFTISRDNAKNTVYLQMNSLKPEDTAFYYCAAEWSSLNFDYWGQGTQVTVSS”, “low polyreactivity”.
To “QVHLVESGGGLVQAGRSLRFSCAASGSIFGVNTMGWYRQAPGKERELDAGISSSGSSTYYADSVKGRFTISRDNAKNTVYLQMNSLKPEDTAVYDCAVRPRYYSTNMDSWGQGTQVTVSS” belongs “low polyreactivity”; to “QDQLVESRGGLVQAGCSLRLSCAASGFIFLHYTMGSYRQAPRKERELVAGITYGHGSTSYADSVKGRFTISRDNAKNTVYLQMNRLKPEDTAVYYCATRYWYRTSYQLYDYWGQGTQVTVSS”, “low polyreactivity”.
On to “QVQLVESAGGLVQAGGSLRLSCAPSGSTFNYYAMGWYRQAPGKESELGAAIDWSGGSTYYADSVKGRFTISRDNAKNTVYLQMNSLKPDDTAVYYCAARTYDYSYGSFDYWGQGTQVTVSS”, for which the “polyreactivity (PSR sort gate)” value is “low polyreactivity”.
To “QVQLVESGGGLVQAGGSLRLSCAASGRIFVASAMGWYRQAPGKERELVAAISKTGGSTYYADSVKGRFTISRDNAKKTVYLQMNSLKPEDTAVYYCAADVYRRFDYWGQGTQVTVSS” belongs “low polyreactivity”; to “QVQLVEPGGGIVQAGGSLRLSCAASGYIFYNYAMGWYRQAPGKERELVAAITSGGSTYYADSVKGRFTISRDNAKNTVYFQMNSLKPEDTAVYYCAAYLFPAYSRISNDYWGQGTQVTVSS”, “high polyreactivity”; to “QVQLVESGGGLVQAGGSLRLSCAASGSTSGKNAMGWYRQAPGKERELVAAIRNSGGTTYYADSVKGRFTISRDNAKNTVYLQMNSLKPEDTAVYYCATRYYLKFLDGYNYWGQGTQVTVSS”, “high polyreactivity”.
With “QVQLVESGGGLVQAGGSLRLSCAASGSTFAQNAMGWYRQAPGKEREFVAAITGTVGSTYYADSVKGRFTISRDNAKNTVYLQMNSLKPEDTAVYYCNTRGFNGRVYPYDYWGQGTQVTVSS” the entry was “low polyreactivity”; with “QVQLVESAGGIVQAGGSLRLSCAASGFTFTGYAMGWYRQAPGKEREMVAAINARGTSTYYADSVKGRFTISRDNAKNTVYLQMNSLKPEDTAVYYCNREGRSVSGYYYYWGQGTQVTVSS”, “high polyreactivity”.
With “QVQLVESGGGLVQAGGSLRLSCAASGFTLTLYAMGWYRQAPGKERELVARITSSGGITYYADSVKGRFTISRDNAKNTVYLQMISLKPEDTAVYYCAKEALIGPSRIILGEMGYWGQGTQVTVSS”, the “polyreactivity (PSR sort gate)” value was “low polyreactivity”.
To “QVQLVESGGGLVQAGGSLRLSCAASGSIFYYYAMGWYRQAPGKERELVAAISWCGGSTYYADSVKGRFTISRDNAKNTVYLQMNSLKPEDTAVYYCAAQRRYGDDYWGQGTQVTVSS” belongs “high polyreactivity”.
As to “QVQLVESGGGLVQAGGSLRLTCAASGFILKYYAMGWYRHAPGKERHLVAAITVSGGSTYYADSVKGRFTISRDNAKNTVYLQMNSLKPEDTAVYYCNADYPRGGAGLLDYWGQCTQVTVSS”, the “polyreactivity (PSR sort gate)” value is reported as “low polyreactivity”.
With “QVQLVESGGGLVQAGGSLRLSCAASGRTFARYVMGWYRQAPGKERELVAAINSGGNTYYADSVKGRFTISRDNAKNTVYLQMNSLKPEDTAVYYCAVKAARTYYWGQGTQVTVSS”, the “polyreactivity (PSR sort gate)” value is on record as “high polyreactivity”.
With “QVQLVESGGGLVQAGGSLRLSCAASGLTFTGNAMGWNRQAPGKEREFVAAIRWSAGSTYYADSVKGRFTISRDNAKNTVYLQMNSLKPEDSAVYYCNAGLNVSGHYPNDYWGQGTQVTVSS” the entry was “low polyreactivity”; with “QDQLVESGGGLVQAGGSLRLTCAASGSTFGVYTMGWYRQAPGKERELVAAITKSGGSTYYADSVKGRFTISRDNAKNTVYLQMNSLKPEETAVYYCATDADRPPRTPDISYVSNFDYWGQGTQVTVSS”, “low polyreactivity”.
To “QDQLVESGGGLVQAGGSLRLSCASSGYIFYYNAMGWYRQAPGKEWELVAAITGDSGTYYADSVKGRFTISRDNAKNTFYFQMNCLKPEDTAVYYCNAYTFYQYYRWYVYWGQVTQVTVSS” belongs “low polyreactivity”.
With “QVQLVESGGGLVQAGGSLRLSCAASGFIFSSYAMGWYRQAPGKERELVAAITRNGGSTYYADSVKGRFTISRDNAKNTVYLQMNSLKPEDTAVYYCAAPRWRGVGRFDYWGQGTQVTVSS” the entry was “high polyreactivity”; with “QVQLVESGGGLVQAGGSLRLSCAASGSIFDTNAMGWYRQAPGKERELVAAIRWSGGRTYYADSVKGRFTISRDNAKITVYLQMNSLKPEDTAVYYCNKVPRTPIPYKYGYWGQGTQVTVSS”, “high polyreactivity”.
Regarding “QVQLVESGGRLVQAGGSLRLICAASGSICTHNAMGWYRQAPGKERELVADITSSVSSTYYADSVKGRFTISRDNSKNTVDLQMNSLKPEDTSVYYCAGGVGRGMYYWGQGTQVTVSS”, the “polyreactivity (PSR sort gate)” value is listed as “low polyreactivity”.
As for “QVQLVESGGGLVQAGGSLRLSCAASGFTFYRYDMGWYRQAPGQERELVAAITNNGGNTYYADSVKGRFTISRDNAKNTVYLQMNSLKPEDTAVYYCAARTWGRYDYWGQGTQVTVSS”, the “polyreactivity (PSR sort gate)” value is given as “high polyreactivity”.
With “QVQLVESGAGLVQAGGSLRLSCAASGSTFSHNAMGWYRQEPGKESELVAAISWSGGGTYADSVKGRFTISRDNAKNTVYLQMNSLIPEDTAVYYCNKVSYPSTSSSWFDYWGKGTQVTVSS” the entry was “low polyreactivity”.
